According to US20240115668A1 (KOLON TISSUEGENE, published 2024):

Biological target: Recombinant human PTEN protein (human, UniProt P60483 1-403 (dog entry), limits assumed)
Assay: cell-based or functional assay

Chain of Recombinant human PTEN protein (P60483 whole entry): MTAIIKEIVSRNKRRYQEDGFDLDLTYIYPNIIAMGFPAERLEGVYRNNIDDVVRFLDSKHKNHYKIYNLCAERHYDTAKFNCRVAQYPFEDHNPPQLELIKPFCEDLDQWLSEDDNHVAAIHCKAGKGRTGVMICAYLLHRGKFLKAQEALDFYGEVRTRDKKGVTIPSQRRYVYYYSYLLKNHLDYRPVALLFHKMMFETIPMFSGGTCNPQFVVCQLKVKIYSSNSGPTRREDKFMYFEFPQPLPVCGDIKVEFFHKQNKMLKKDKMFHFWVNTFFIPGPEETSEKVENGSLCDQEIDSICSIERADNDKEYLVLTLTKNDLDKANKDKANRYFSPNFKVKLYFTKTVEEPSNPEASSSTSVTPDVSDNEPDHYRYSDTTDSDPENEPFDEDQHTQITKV

Binder | PTEN activity remaining with 10 µM peptide, compared with positive control (in vitro PTEN activity assay) [%] | IC50, in vitro PTEN activity assay (lipid phosphatase, C8-PIP3 liposomes, Malachite Green) [µM]
RRRRRRRRVTPDVSDNEPDHYRYSDTTDSDPE (three phosphorylated Serine residues (pS; PTEN Ser370, Ser380 and Ser385 = peptide positions 14, 24 and 29); C-terminal amide) [TGN-1 peptide] | 54 | 
RRRRRRRRHYRYVDTTDVDPENEPFDEDQHTQITKV (C-terminal amide) [TGN-3 peptide] | 86 | 87.1
RRRRRRRRHYRYSDTTDSDPENEPFDEDQHTQITKV (two phosphorylated Serine residues (pS; PTEN Ser380 and Ser385 = peptide positions 13 and 18); C-terminal amide) [TGN-2 peptide] | 31 | 
